# Source: patent US20230331827A1, “POTASSIUM CHANNEL INHIBITORS” (priority 2017, published 2023)
# Like-named read-outs stand apart in the source and are kept apart here.
# B1: KB_A12_KTX: kaliotoxin in VL CDR2 of KB_A12, IgG1 (antibody)
# VH: EVQLVESGGGLVRPGGSLRLSCAASGFTFSSYAMSWVRQAPGKGLEWVSAISGSGGSTYYADSVKGRFTISRDNTKNSLYLQMTSLRADDTAFYYCVKDFGPGYGTGWFDYWGPGTLVTVSS
# VL: QSVLTQPPSVSEAPRQRVTITCSGSSSNIGNNAVNWYQQLPGKAPKLLIYAAGRGVEINVKCSGSPQCLKPCKDAGMRFGKCMNRKCHCTPKANSGVSDRFSAAKSGTSASLAINGLRSEDEADYYCAAWDDSLNGYVFGTGTKLTVLGQP
# Legend:
# Type in all cases: cell-based
# human Kv1.3 (huKv1.3) = molecular target: T1, human Kv1.3 (huKv1.3) (Homo sapiens, UniProt P22001); assay: QPatch automated patch-clamp, CHO cells stably expressing human Kv1.3 (Examples 19-21)
# T1 construct: host or cells: CHO
# T1 sequence (P22001 whole entry): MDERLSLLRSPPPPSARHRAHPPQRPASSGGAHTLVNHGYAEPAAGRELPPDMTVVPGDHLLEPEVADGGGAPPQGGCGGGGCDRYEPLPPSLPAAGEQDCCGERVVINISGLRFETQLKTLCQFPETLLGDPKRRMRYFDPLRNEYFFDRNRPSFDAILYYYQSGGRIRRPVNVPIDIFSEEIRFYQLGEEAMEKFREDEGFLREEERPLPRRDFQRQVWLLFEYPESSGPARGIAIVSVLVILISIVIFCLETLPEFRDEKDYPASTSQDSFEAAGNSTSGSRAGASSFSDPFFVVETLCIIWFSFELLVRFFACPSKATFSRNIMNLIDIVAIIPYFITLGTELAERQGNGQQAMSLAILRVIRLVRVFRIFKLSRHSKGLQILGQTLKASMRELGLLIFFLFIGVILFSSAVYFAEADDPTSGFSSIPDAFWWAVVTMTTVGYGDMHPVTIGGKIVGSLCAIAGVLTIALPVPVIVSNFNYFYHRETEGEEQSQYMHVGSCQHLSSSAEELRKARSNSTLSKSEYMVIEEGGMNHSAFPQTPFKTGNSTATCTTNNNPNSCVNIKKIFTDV
# Description: The effect of these KnotBodies on cells expressing human Kv1.3 (huKv1.3) channel was assessed using the QPatch automated patch-clamp platform (Sophion, Ballerup, Denmark). For the testing of Kv1.3 ion channel currents, CHO cells stably expressing human Kv1.3 (GenBank accession number NM_002232.2; cell line catalogue number CT6133, Charles River Discovery, Cleveland, USA) were subjected to a QPatch electrophysiology assay in the presence or absence of the KnotBody fusions or the antibody isotypes (negative controls). Internal and external physiological solutions were freshly prepared prior to the assay. The extracellular solution contained 145 mM NaCl, 4 mM KC1, 2 mM CaC12, 1 mM MgC12, 10 mM HEPES and 10 mM glucose; the pH was adjusted to 7.4 with NaOH; the osmolarity was ~ 305 mOsm/L. The intracellular solution contained: KF (120 mM), KC1 (20 mM), HEPES (10 mM) EGTA (10 mM); the pH was adjusted to 7.2 with KOH; osmolarity was ~ 300 mOsm/L.
# (§1) A series of depolarising voltage (channel activating) pulses were used to monitor the channel currents upon adding control (extracellular solution) to define a control baseline of current activity. To these measured control currents four, ascending concentrations of KnotBodies (including KB_A12_ShK and KB_A12_KTX as previously described in Example 8) or parental antibody isotypes (control molecules) were applied to the external bathing solution. KnotBodies KB_A12 and KB_A07 (EETI-II fusions) were used as isotype controls for the testing. From a holding voltage of -80 mV a depolarising, activating voltage pulses of +30 mV were applied for 300 ms, every 10 seconds. The elicited, maximum outward current values measured during the activating step for each solution exchange period, averaged (n = 3 - 6 for each concentration applied) and plotted as concentration-response curves (see FIG. 32). From these concentration-response curves IC50 values were calculated.
# (§2) For the testing of Kv1.1 and Kv1.3, CHO-S expressing huKv1.1 (described above) or CHO cells stably expressing huKv1.3 (Charles River Lab) were analysed using the QPatch electrophysiology assay in the presence or absence of the KnotBody fusions. Internal and external physiological solutions were freshly prepared prior to the assay. The extracellular solution contained 145 mM NaCl, 4 mM KC1, 2 mM CaC12, 1 mM MgC12, 10 mM HEPES and 10 mM glucose; the pH was adjusted to 7.4 with NaOH; the osmolarity was ~ 305 mOsm/L. The intracellular solution contained: KF (120 mM), KC1 (20 mM), HEPES (10 mM) EGTA (10 mM); the pH was adjusted to 7.2 with KOH; osmolarity was ~ 300 mOsm/L.
# as §1, with “(including previously described” for “(including”, “KB_A12_KTX” for “KB_A12_KTX as previously”, “[…]” for “+30 mV”, “33).” for “32).”, “calculated (see Table E20).” for “calculated.”
# (§3) For the testing of Kv1.1 and Kv1.3, CHO-S expressing huKv1.1 (see Example 20 and below) or CHO cells stably expressing huKv1.3 (Charles River Lab) were analysed using the QPatch electrophysiology assay in the presence or absence of the KnotBody fusions - see details in Examples 19 and 20.
# huKv1.3 = molecular target: T2, huKv1.3 (Homo sapiens, UniProt P22001); assay: QPatch automated whole-cell patch-clamp, CHO cells stably expressing huKv1.3 (Example 8); conditions: Kv1.3 channels, IgG KnotBody, Table 11A
# T2 construct: host or cells: CHO
# T2 sequence (P22001 whole entry): as above
# Description: Knottin Kv 1.3 and ASIC1a blockers expressed in the KnotBody format (see examples 6 and 7) were tested for their ability to inhibit the function of the ion channel targets. The effect of these KnotBodies on cells expressing the human Kv 1.3 (huKv1.3) or human ASIC1a channels was assessed using QPatch automated whole-cell patch-clamp electrophysiology (Sophion).
# For the testing of Kv1.3, CHO cells stably expressing huKv1.3 (Charles River Lab) were analysed using the QPatch electrophysiology assay in the presence or absence of the KnotBody fusions or the antibody isotypes (negative) controls. Internal and external physiological solutions were freshly prepared prior to the assay. The extracellular solution contained 145 mM NaCl, 4 mM KCl, 2 mM CaCl2, 1 mM MgCl2, 10 mM HEPES and 10 mM glucose; the pH was adjusted to 7.4 with NaOH; the osmolarity was ~ 305 mOsm/L. The intracellular solution contained: KF (120 mM), KCl (20 mM), HEPES (10 mM) and EGTA (10 mM); the pH was adjusted to 7.2 with KOH; osmolarity was ~ 320 mOsm/L.
# A series of depolarising voltage (channel activating) pulses were used to monitor the channel currents upon adding control (extracellular solution) to define a control baseline of current activity. To these measured control currents ascending concentrations of KnotBodies or parental antibody isotypes (control molecules) were applied to the external bathing solution (2.2 µM - 0.5 nM, diluted in the extracellular solution). KnotBodies KB_A12 and KB_A07 (EETI-II fusions) were used as isotype controls for the testing. From a holding voltage of -80 mV a depolarising, activating voltage pulses of +30 or +80 mV were applied for 300 ms, every 5 or 10 seconds. The elicited, maximum outward current values measured during the activating step for each solution exchange period were averaged (n = 3 - 8 for each concentration applied) and plotted as concentration-response curves. KB_A07_ShK, KB_A12_ShK and KB_A07_Kaliotoxin (KTX) fusion proteins all inhibited the huKv1.3 currents in a concentration dependent manner with IC50S of approximately 20 nM, 40 nM and 900 nM respectively.
# human Kv1.1 (huKv1.1) = molecular target: T3, human Kv1.1 (huKv1.1) (Homo sapiens, UniProt Q09470); assay: QPatch automated patch-clamp, CHO-S cells expressing huKv1.1 (Examples 20-21); conditions: four-point curves of FIG. 33, Table E20
# T3 construct: expressed in transfected cells; host or cells: Freestyle CHO-S
# T3 sequence (Q09470 whole entry): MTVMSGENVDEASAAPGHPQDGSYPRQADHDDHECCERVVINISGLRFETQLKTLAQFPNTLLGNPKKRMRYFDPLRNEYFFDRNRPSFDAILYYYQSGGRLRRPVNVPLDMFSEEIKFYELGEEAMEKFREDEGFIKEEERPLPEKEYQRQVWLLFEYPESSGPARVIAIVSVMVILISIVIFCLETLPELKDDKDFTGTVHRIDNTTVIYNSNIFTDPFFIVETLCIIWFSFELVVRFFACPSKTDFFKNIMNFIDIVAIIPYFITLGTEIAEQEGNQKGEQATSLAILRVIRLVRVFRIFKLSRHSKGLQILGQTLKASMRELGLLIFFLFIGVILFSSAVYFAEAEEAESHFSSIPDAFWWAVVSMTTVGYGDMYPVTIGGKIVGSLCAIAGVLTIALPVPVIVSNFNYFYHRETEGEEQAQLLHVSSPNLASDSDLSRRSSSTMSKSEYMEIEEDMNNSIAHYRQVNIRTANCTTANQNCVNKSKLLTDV
# Description: 1. The effect of these KnotBodies on cells expressing human Kv1.1 (huKv1.1) and Kv1.3 (huKv1.3) channels was assessed using QPatch automated patch-clamp platform (Sophion).
# To generate huKv1.1 expressing cells, Freestyle CHO-S cells (Cat. no. R80007, Life Technologies, California, USA) were transfected with pINT50-Tr plasmid encoding huKv1.1 gene using the MaxCyte STX (MaxCyte) transfection system. In pINT50-Tr plasmid, huKv1.1 gene is under the control of a CMV promoter. 64 µg of the plasmid DNA were added to 400 µl of Freestyle CHO-S cells (at a density of 1 × 10^8 cells/ml) in Electroporation Buffer (GE Healthcare Life Sciences, Cat. no. EPB1) in an OC-400 processing assembly (MaxCyte). Following electroporation, the cells were transferred to a well of a 24-well plate containing 200 U/ml DNAse I (Sigma, D4263) and incubated for 20 minutes at 37° C. and 5% CO2. The cells were then transferred into a 100 ml shaker flask containing 20 ml of CD Opticho Media (Thermo Fisher Scientific, Cat.No 12681-011,) supplemented with 8 mM L-Glut (Thermo Fisher Scientific, cat. no. 25030-024). The cells were incubated for 24 hours at 37° C. and 5% CO2 (and 75% humidity and shaking at 800 rpm) prior to testing using automated patch clamp electrophysiology.
# as §2
# as §1, with “(including previously described” for “(including”, “KB_A12_KTX” for “KB_A12_KTX as previously”, “[…]” for “+30 mV”, “33).” for “32).”, “calculated (see Table E20).” for “calculated.”
# as §3
# In addition to the CHO-S transiently expressing huKv1.1 (described in Example 20), CHO-S cells with poly-clonal stable expression of huKv1.1 cells were also made and used in the QPatch electrophysiology assay. To generate the polyclonal stable huKv1.1 cells from the transiently expressing cells described in Example 20, after a 24 hour incubation period the selection antibiotic Puromycin (catalogue no. A1 1138-03, Life Technologies, California, USA) was added to culture media. Then, for the first 14 days puromycin was at 10 µg ml-1 media; at days 15-28 puromycin was at 20 µg ml-1 media. Cell cultures were seeded at 2.5 x 10^5 cells ml^-1 into fresh culture media and puromycin twice per week through this selection growth period. […]
molecule,measurement,setting,value
B1,Fold difference,"human Kv1.3 (huKv1.3); Kv1.1 IC50 over Kv1.3 IC50, Table E20",3
same,IC50,"human Kv1.3 (huKv1.3); four-point curves of FIG. 33, Table E20, read-out: Kv1.3 IC50",1.54 µM
same,IC50,"human Kv1.3 (huKv1.3); huKv1.3, four-point curves of FIG. 32, Table E19, read-out: IC50",0.43 µM
same,IC50,huKv1.3,> 10 µM
same,IC50,human Kv1.1 (huKv1.1),4.8 µM
